Reference: paper PMC11798926

B1: myc-tagged SynDIG4 (wild type) [rat] / HA-tagged μ2 AP subunit [not stated] (parent)
chain 1: MSSEKSGLPDSVPHTSPPPYNAPQPPAEPPIPPPQTAPSSHHHHHHHYHQSGTATLPRLGAGGLASAAAGAQRGPSSSATLPRPPHHAPPGPAAGAPPPGCATLPRMPPDPYLQETRFEGPLPPPPPAAAAPPPPAPAPTAQAPGFVVPTHAGAVGTLPLGGYVAPGYPLQLQPCTAYVPVYPVGTPYASGTPGGPGVTSTLPPPPQGPGLALLEPRRPPHDYMPIAVLTTICCFWPTGIIAIFKAVQVRTALARGDLVSAEIASREARNFSFISLAVGIAAMVLCTILTVVIIIAAQHHENYWDP
chain 2: MIGGLFIYNHKGEVLISRVYRDDIGRNAVDAFRVNVIHARQQVRSPVTNIARTSFFHVKRSNIWLAAVTKQNVNAAMVFEFLYKMCDVMAAYFGKISEENIKNNFVLIYELLDEILDFGYPQNSETGALKTFITQQGIKSQHQTKEEQSQITSQVTGQIGWRREGIKYRRNELFLDVLESVNLLMSPQGQVLSAHVSGRVVMKSYLSGMPECKFGMNDKIVIEKQGKGTADETSKSGKQSIAIDDCTFHQCVRLSKFDSERSISFIPPDGEFELMRYRTTKDIILPFRVIPLVREVGRTKLEVKVVIKSNFKPSLLAQKIEVRIPTPLNTSGVQVICMKGKAKYKASENAIVWKIKRMAGMKESQISAEIELLPTNDKKKWARPPISMNFEVPFAPSGLKVRYLKVFEPKLNYSDHDVIKWVRYIGRSGIYETRC

Variants of: B1
Assay: co-immunoprecipitation (IP: HA, blot: myc), quantified
Settings: with HA-tagged μ2 AP subunit; HEK293T cells; first bar chart of panel D (SD4 vs AVPA); parent: 100; read off a plot

percent of parent | Variant
45 %SD4 | chain 1 Y178A V181A

Same assay, conditions: with HA-tagged μ2 AP subunit; HEK293T cells; third bar chart of panel D (SD4 vs AVPA vs ∆170-89); marked ns; parent: 100; read off a plot

percent of parent | Variant
55 %SD4 | chain 1 Y178A V181A
